Sequences and labels used below:
T1: recombinant rat MASP1 active protease (amino acids 302-704, C-terminal His Tag) (rat, UniProt Q8CHN8 302-704)
T1 sequence: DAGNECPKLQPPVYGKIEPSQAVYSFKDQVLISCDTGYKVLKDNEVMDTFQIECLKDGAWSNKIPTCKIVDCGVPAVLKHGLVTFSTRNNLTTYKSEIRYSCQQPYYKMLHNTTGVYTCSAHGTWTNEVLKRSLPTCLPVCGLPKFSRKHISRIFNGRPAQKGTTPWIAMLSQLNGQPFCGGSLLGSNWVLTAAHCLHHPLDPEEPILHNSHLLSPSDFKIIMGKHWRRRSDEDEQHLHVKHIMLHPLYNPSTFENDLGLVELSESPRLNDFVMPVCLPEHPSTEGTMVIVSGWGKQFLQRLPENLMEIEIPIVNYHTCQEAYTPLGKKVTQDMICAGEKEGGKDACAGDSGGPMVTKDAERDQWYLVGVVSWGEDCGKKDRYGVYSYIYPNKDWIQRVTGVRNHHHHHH

B1: Example 484: ((N-Me)G)-IC+SRSLP-(Oic)-I-(Pen)+IPD-(PEG2(13 atoms))-OH (peptide)
peptide: [Sar]ICSRSLP[Oic]I[Pen]IPD[PEG3]-OH
modifications: disulfide 3-11; N-terminus assumed
SMILES: CC[C@H](C)[C@H](NC(=O)CNC)C(=O)N[C@H]1CSSC(C)(C)[C@@H](C(=O)N[C@H](C(=O)N2CCC[C@H]2C(=O)N[C@@H](CC(=O)O)C(=O)NCCOCCOCCOCCC(=O)O)[C@@H](C)CC)NC(=O)[C@H]([C@@H](C)CC)NC(=O)[C@@H]2C[C@@H]3CCCC[C@@H]3N2C(=O)[C@@H]2CCCN2C(=O)[C@H](CC(C)C)NC(=O)[C@H](CO)NC(=O)[C@H](CCCNC(=N)N)NC(=O)[C@H](CO)NC1=O
B2: Example 492: ((N-Me)G)-IC+SRSLP-(Oic)-I-(Pen)+IPT-OH (peptide)
peptide: [Sar]ICSRSLP[Oic]I[Pen]IPT-OH
modifications: disulfide 3-11; N-terminus assumed
SMILES: CC[C@H](C)[C@H](NC(=O)CNC)C(=O)N[C@H]1CSSC(C)(C)[C@@H](C(=O)N[C@H](C(=O)N2CCC[C@H]2C(=O)N[C@H](C(=O)O)[C@@H](C)O)[C@@H](C)CC)NC(=O)[C@H]([C@@H](C)CC)NC(=O)[C@@H]2C[C@@H]3CCCC[C@@H]3N2C(=O)[C@@H]2CCCN2C(=O)[C@H](CC(C)C)NC(=O)[C@H](CO)NC(=O)[C@H](CCCNC(=N)N)NC(=O)[C@H](CO)NC1=O
B3: Example 495: ((N-Me)G)-IC+SRSLP-(Oic)-I-(Pen)+IPGd-OH (peptide)
peptide: [Sar]ICSRSLP[Oic]I[Pen]IPG[dD]-OH
modifications: disulfide 3-11; N-terminus assumed
SMILES: CC[C@H](C)[C@H](NC(=O)CNC)C(=O)N[C@H]1CSSC(C)(C)[C@@H](C(=O)N[C@H](C(=O)N2CCC[C@H]2C(=O)NCC(=O)N[C@H](CC(=O)O)C(=O)O)[C@@H](C)CC)NC(=O)[C@H]([C@@H](C)CC)NC(=O)[C@@H]2C[C@@H]3CCCC[C@@H]3N2C(=O)[C@@H]2CCCN2C(=O)[C@H](CC(C)C)NC(=O)[C@H](CO)NC(=O)[C@H](CCCNC(=N)N)NC(=O)[C@H](CO)NC1=O
B4: Example 491: (3-Carboxybenzoic acid)-GIC+SRSLP-(Oic)-I-(Pen)+IPD-OH (peptide)
peptide: {Benzoyl(3-COOH)}-GICSRSLP[Oic]I[Pen]IPD-OH
modifications: disulfide 3-11
SMILES: CC[C@H](C)[C@H](NC(=O)CNC(=O)c1cccc(C(=O)O)c1)C(=O)N[C@H]1CSSC(C)(C)[C@@H](C(=O)N[C@H](C(=O)N2CCC[C@H]2C(=O)N[C@@H](CC(=O)O)C(=O)O)[C@@H](C)CC)NC(=O)[C@H]([C@@H](C)CC)NC(=O)[C@@H]2C[C@@H]3CCCC[C@@H]3N2C(=O)[C@@H]2CCCN2C(=O)[C@H](CC(C)C)NC(=O)[C@H](CO)NC(=O)[C@H](CCCNC(=N)N)NC(=O)[C@H](CO)NC1=O
B5: Example 493: ((N-Me)G)-IC+SRSLP-(Oic)-I-(Pen)+IPY-OH (peptide)
peptide: [Sar]ICSRSLP[Oic]I[Pen]IPY-OH
modifications: disulfide 3-11; N-terminus assumed
SMILES: CC[C@H](C)[C@H](NC(=O)CNC)C(=O)N[C@H]1CSSC(C)(C)[C@@H](C(=O)N[C@H](C(=O)N2CCC[C@H]2C(=O)N[C@@H](Cc2ccc(O)cc2)C(=O)O)[C@@H](C)CC)NC(=O)[C@H]([C@@H](C)CC)NC(=O)[C@@H]2C[C@@H]3CCCC[C@@H]3N2C(=O)[C@@H]2CCCN2C(=O)[C@H](CC(C)C)NC(=O)[C@H](CO)NC(=O)[C@H](CCCNC(=N)N)NC(=O)[C@H](CO)NC1=O
B6: Example 486: ((N-Me)G)-IC+SRS-((tBu)A)-PPI-(Pen)+IP-(Orn)-D-OH (peptide)
peptide: [Sar]ICSRS[tBuAla]PPI[Pen]IP[Orn]D-OH
modifications: disulfide 3-11; N-terminus assumed
SMILES: CC[C@H](C)[C@H](NC(=O)CNC)C(=O)N[C@H]1CSSC(C)(C)[C@@H](C(=O)N[C@H](C(=O)N2CCC[C@H]2C(=O)N[C@@H](CCCN)C(=O)N[C@@H](CC(=O)O)C(=O)O)[C@@H](C)CC)NC(=O)[C@H]([C@@H](C)CC)NC(=O)[C@@H]2CCCN2C(=O)[C@@H]2CCCN2C(=O)[C@H](CC(C)(C)C)NC(=O)[C@H](CO)NC(=O)[C@H](CCCNC(=N)N)NC(=O)[C@H](CO)NC1=O
B7: Example 494: ((N-Me)G)-IC+SRSLP-(Oic)-I-(Pen)+IPDA-OH (peptide)
peptide: [Sar]ICSRSLP[Oic]I[Pen]IPDA-OH
modifications: disulfide 3-11; N-terminus assumed
SMILES: CC[C@H](C)[C@H](NC(=O)CNC)C(=O)N[C@H]1CSSC(C)(C)[C@@H](C(=O)N[C@H](C(=O)N2CCC[C@H]2C(=O)N[C@@H](CC(=O)O)C(=O)N[C@@H](C)C(=O)O)[C@@H](C)CC)NC(=O)[C@H]([C@@H](C)CC)NC(=O)[C@@H]2C[C@@H]3CCCC[C@@H]3N2C(=O)[C@@H]2CCCN2C(=O)[C@H](CC(C)C)NC(=O)[C@H](CO)NC(=O)[C@H](CCCNC(=N)N)NC(=O)[C@H](CO)NC1=O
B8: Example 483: ((N-Me)G)-IC+SRSLP-(Oic)-I-(Pen)+IP-((3-Carboxy)F)-OH (peptide)
peptide: [Sar]ICSRSLP[Oic]I[Pen]IP[Phe(3-COOH)]-OH
modifications: disulfide 3-11; N-terminus assumed
SMILES: CC[C@H](C)[C@H](NC(=O)CNC)C(=O)N[C@H]1CSSC(C)(C)[C@@H](C(=O)N[C@H](C(=O)N2CCC[C@H]2C(=O)N[C@@H](Cc2cccc(C(=O)O)c2)C(=O)O)[C@@H](C)CC)NC(=O)[C@H]([C@@H](C)CC)NC(=O)[C@@H]2C[C@@H]3CCCC[C@@H]3N2C(=O)[C@@H]2CCCN2C(=O)[C@H](CC(C)C)NC(=O)[C@H](CO)NC(=O)[C@H](CCCNC(=N)N)NC(=O)[C@H](CO)NC1=O
B9: Example 490: (4-Carboxybenzoic acid)-GIC+SRSLP-(Oic)-I-(Pen)+IPD-OH (peptide)
peptide: {Benzoyl(4-COOH)}-GICSRSLP[Oic]I[Pen]IPD-OH
modifications: disulfide 3-11
SMILES: CC[C@H](C)[C@H](NC(=O)CNC(=O)c1ccc(C(=O)O)cc1)C(=O)N[C@H]1CSSC(C)(C)[C@@H](C(=O)N[C@H](C(=O)N2CCC[C@H]2C(=O)N[C@@H](CC(=O)O)C(=O)O)[C@@H](C)CC)NC(=O)[C@H]([C@@H](C)CC)NC(=O)[C@@H]2C[C@@H]3CCCC[C@@H]3N2C(=O)[C@@H]2CCCN2C(=O)[C@H](CC(C)C)NC(=O)[C@H](CO)NC(=O)[C@H](CCCNC(=N)N)NC(=O)[C@H](CO)NC1=O
B10: Example 487: ((N-Me)G)-IC+SRSLP-(Oic)-I-(Pen)+IPR-OH (peptide)
peptide: [Sar]ICSRSLP[Oic]I[Pen]IPR-OH
modifications: disulfide 3-11; N-terminus assumed
SMILES: CC[C@H](C)[C@H](NC(=O)CNC)C(=O)N[C@H]1CSSC(C)(C)[C@@H](C(=O)N[C@H](C(=O)N2CCC[C@H]2C(=O)N[C@@H](CCCNC(=N)N)C(=O)O)[C@@H](C)CC)NC(=O)[C@H]([C@@H](C)CC)NC(=O)[C@@H]2C[C@@H]3CCCC[C@@H]3N2C(=O)[C@@H]2CCCN2C(=O)[C@H](CC(C)C)NC(=O)[C@H](CO)NC(=O)[C@H](CCCNC(=N)N)NC(=O)[C@H](CO)NC1=O
B11: Example 482: ((N-Me)G)-IC+SRS-((tBu)A)-PPI-(Pen)+IP-((3-Carboxy)F)-OH (peptide)
peptide: [Sar]ICSRS[tBuAla]PPI[Pen]IP[Phe(3-COOH)]-OH
modifications: disulfide 3-11; N-terminus assumed
SMILES: CC[C@H](C)[C@H](NC(=O)CNC)C(=O)N[C@H]1CSSC(C)(C)[C@@H](C(=O)N[C@H](C(=O)N2CCC[C@H]2C(=O)N[C@@H](Cc2cccc(C(=O)O)c2)C(=O)O)[C@@H](C)CC)NC(=O)[C@H]([C@@H](C)CC)NC(=O)[C@@H]2CCCN2C(=O)[C@@H]2CCCN2C(=O)[C@H](CC(C)(C)C)NC(=O)[C@H](CO)NC(=O)[C@H](CCCNC(=N)N)NC(=O)[C@H](CO)NC1=O
B12: Example 485: ((N-Me)G)-IC+SRS-((tBu)A)-PPI-(Pen)+IP-(PEG3(16atoms))-OH (peptide)
peptide: [Sar]ICSRS[tBuAla]PPI[Pen]IP[PEG4]-OH
modifications: disulfide 3-11; N-terminus assumed
SMILES: CC[C@H](C)[C@H](NC(=O)CNC)C(=O)N[C@H]1CSSC(C)(C)[C@@H](C(=O)N[C@H](C(=O)N2CCC[C@H]2C(=O)NCCOCCOCCOCCOCCC(=O)O)[C@@H](C)CC)NC(=O)[C@H]([C@@H](C)CC)NC(=O)[C@@H]2CCCN2C(=O)[C@@H]2CCCN2C(=O)[C@H](CC(C)(C)C)NC(=O)[C@H](CO)NC(=O)[C@H](CCCNC(=N)N)NC(=O)[C@H](CO)NC1=O

Bridge positions count the residues as written; N and C are the ends. Square brackets hold non-standard residues; d marks the D form. Ends that are not written are not given here. * marks the point of attachment. Phe(3-COOH) = N[C@@H](Cc1cccc(C(=O)O)c1)C(=O)O; Benzoyl(3-COOH) = O=C(O)c1cccc(C(=O)*)c1; Benzoyl(4-COOH) = O=C(O)c1ccc(C(=O)*)cc1; Oic = O=C(O)[C@@H]1C[C@@H]2CCCC[C@@H]2N1; tBuAla = CC(C)(C)C[C@H](N)C(=O)O; PEG4 = NCCOCCOCCOCCOCCC(=O)O; Pen = CC(C)(S)[C@H](N)C(=O)O; PEG3 = NCCOCCOCCOCCC(=O)O; Orn = NCCC[C@H](N)C(=O)O; Sar = CNCC(=O)O

The target of the first test is T1, recombinant rat MASP1 active protease …. Briefly: cell-based or functional assay.
For the molecule [(S)‑Piperidine‑3‑Carboxylic Acid]ICSRSLP[Oic]I[Pen]IPD-OH (disulfide 3-11) [Example 489: ((S)-Piperidine-3-Carboxylic Acid)-IC+SRSLP-(Oic)-I-(Pen)+IPD-OH], the “rat MASP1 IC50” value was 42 nM.
As to B1, the “rat MASP1 IC50” value is 63 nM.
The same measure, in the same setting: then B2, with 65 nM; and B3, with 45 nM.
As for [Sar]ICSRS[tBuAla]PPI[Pen]IP-{PEG5‑CH2CO2H(18 atoms)-OH} (disulfide 3-11) [Example 496: ((N-Me)G)-IC+SRS-((tBu)A)-PPI-(Pen)+IP-(PEG5-CH2CO2H(18 atoms))-OH], the “rat MASP1 IC50” value amounted to 31 nM.
On the same count and under the same terms, with B4 the figure was 20 nM; with B5, 44 nM.
Same read-out and setting: then B6, with 69 nM.
Still for that read-out and setting: then [(R)‑Piperidine‑3‑Carboxylic Acid]ICSRSLP[Oic]I[Pen]IPD-OH (disulfide 3-11) [Example 488: ((R)-Piperidine-3-Carboxylic Acid)-IC+SRSLP-(Oic)-I-(Pen)+IPD-OH], with 41 nM.
With B7, the “rat MASP1 IC50” value turned out to be 38 nM.
The same measure, in the same setting: then B8, with 34 nM.
Still for that read-out and setting: then B9, with 12.5 nM.
Still for that read-out and setting: with B10 the figure was 67 nM; with B11, 18 nM.
With B12, the “rat MASP1 IC50” value was 36 nM.

In another test the target is recombinant rat MASP2 active protease (amino acids 296-685, C-terminal His Tag) (rat, UniProt Q9JJS8 296-685). Description: cell-based or functional assay.
recombinant rat MASP2 active protease (amino acids 296-685, C-terminal His Tag), sequence (Q9JJS8 other isoform, or with tags, fused parts or gaps limits assumed): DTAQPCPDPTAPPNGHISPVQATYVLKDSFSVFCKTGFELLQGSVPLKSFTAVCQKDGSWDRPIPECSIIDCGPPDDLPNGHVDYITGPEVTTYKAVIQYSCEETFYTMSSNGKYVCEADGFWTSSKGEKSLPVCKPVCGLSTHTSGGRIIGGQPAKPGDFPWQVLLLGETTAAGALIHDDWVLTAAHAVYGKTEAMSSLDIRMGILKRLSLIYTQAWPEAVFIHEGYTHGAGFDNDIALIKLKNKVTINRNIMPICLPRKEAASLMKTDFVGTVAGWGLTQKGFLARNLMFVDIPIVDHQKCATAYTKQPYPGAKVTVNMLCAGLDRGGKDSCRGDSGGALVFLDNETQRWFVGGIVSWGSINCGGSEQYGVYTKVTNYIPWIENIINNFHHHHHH
For [(S)‑Piperidine‑3‑Carboxylic Acid]ICSRSLP[Oic]I[Pen]IPD-OH (disulfide 3-11) [Example 489: ((S)-Piperidine-3-Carboxylic Acid)-IC+SRSLP-(Oic)-I-(Pen)+IPD-OH], the “rat MASP2 IC50” value amounted to 22 nM.
Same read-out and setting: with B1 the figure was 88 nM; with B2, 81 nM; with B3, 66 nM.
Same read-out and setting: then [Sar]ICSRS[tBuAla]PPI[Pen]IP-{PEG5‑CH2CO2H(18 atoms)-OH} (disulfide 3-11) [Example 496: ((N-Me)G)-IC+SRS-((tBu)A)-PPI-(Pen)+IP-(PEG5-CH2CO2H(18 atoms))-OH], with 31 nM; and B4, with 23 nM.
As for B5, the “rat MASP2 IC50” value is 49 nM.
For the molecule B6, the “rat MASP2 IC50” value was 68 nM.
On the same count and under the same terms, then [(R)‑Piperidine‑3‑Carboxylic Acid]ICSRSLP[Oic]I[Pen]IPD-OH (disulfide 3-11) [Example 488: ((R)-Piperidine-3-Carboxylic Acid)-IC+SRSLP-(Oic)-I-(Pen)+IPD-OH], with 36 nM; and B7, with 62 nM; and B8, with 50 nM.
With B9, the “rat MASP2 IC50” value was 15 nM.
Regarding B10, the “rat MASP2 IC50” value stood at 38 nM.
Same read-out and setting: then B11, with 33 nM.
Still for that read-out and setting: with B12 the figure was 32 nM.

The values are drawn from patent US20210246166A1 (Bayer, published 2021).
